In patent US20120088715A1 (UNIVERSITE PARIS SUD XI, published 2012):

Target: T1, factor Xa (UniProt P00742 41-179; P00742 235-488, limits assumed)
T1 construct: Bought enzyme; The active enzyme has a light and a heavy chain cut from that precursor; also called FXa
Experiment: discontinuous chromogenic substrate assay of FXa inhibition with pentasaccharide, against plasma AT
Method: The pentasaccharide is added in excess in the reaction media so that every tested antithrombin is bound to the pentasaccharide. In the absence of pentasaccharide, polybrene (100 μg/ml final) is added in order to neutralize any sulfated glycosaminoglycan that may be present in the reaction media. […] The analysis of the data is performed using the GraphPad Prism version 3 software. Absorbance recording is continuous or discontinuous according to the expected inhibition rate constant (kon).
When the expected kon is lower than 10⁴ M⁻¹.s⁻¹ the discontinuous method is used. […] At the end of this incubation period, 190 μl of kinetic buffer containing 200 μM substrate is added and absorbance at 405 nm is recorded.

T1 sequence (P00742 41-179 limits assumed, form in doubt, chain 1 of 2): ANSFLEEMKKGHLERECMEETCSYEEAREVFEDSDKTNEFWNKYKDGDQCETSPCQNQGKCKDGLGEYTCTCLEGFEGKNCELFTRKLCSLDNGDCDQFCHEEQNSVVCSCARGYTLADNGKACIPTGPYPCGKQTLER
T1 sequence (P00742 235-488 limits assumed, form in doubt, chain 2 of 2): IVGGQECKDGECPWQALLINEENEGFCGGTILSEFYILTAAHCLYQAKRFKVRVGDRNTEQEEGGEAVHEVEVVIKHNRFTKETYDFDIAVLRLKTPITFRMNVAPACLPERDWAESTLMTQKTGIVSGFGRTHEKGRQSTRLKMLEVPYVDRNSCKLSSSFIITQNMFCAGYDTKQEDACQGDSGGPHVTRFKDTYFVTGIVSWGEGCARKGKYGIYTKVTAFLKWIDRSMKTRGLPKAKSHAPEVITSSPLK

fold lower kon than plasma AT: ≥ 7600 fold
B1: AT-N135Q-Pro394 (other)
chain: HGSPVDICTAKPRDIPMNPMCIYRSPEKKATEDEGSEQKIPEATNRRVWELSKANSRFATTFYQHLADSKNDNDNIFLSPLSISTAFAMTKLGACNDTLQQLMEVFKFDTISEKTSDQIHFFFAKLNCRLYRKAQKSSKLVSANRLFGDKSLTFNETYQDISELVYGAKLQPLDFKENAEQSRAAINKWVSNKTEGRITDVIPSEAINELTVLVLVNTIYFKGLWKSKFSPENTRKELFYKADGESCSASMMYQEGKFRYRRVAEGTQVLELPFKGDDITMVLILPKPEKSLAKVEKELTPEVLQEWLDELEEMMLVVHMPRFRIEDGFSLKEQLQDMGLVDLFSPEKSKLPGIVAEGRDDLYVSDAFHKAFLEVNEEGSEAAASTAVVIAGRPSLNPNRVTFKANRPFLVFIREVPLNTIIFMGRVANPCVK
